Laboratory results reported in patent publication US20240059758A1 (CORAT THERAPEUTICS, published 2024).
Changes are numbered by the printed parent chain.

B1: YU519-A09 (antibody, V domains shown)
VH: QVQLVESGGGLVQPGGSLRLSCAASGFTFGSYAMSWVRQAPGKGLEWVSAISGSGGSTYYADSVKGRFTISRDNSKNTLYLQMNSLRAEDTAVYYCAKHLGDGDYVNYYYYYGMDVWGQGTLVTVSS
VL: SYVLTQPPSVSVAPRQTARITCGGNNIGSKNVHWYQQKPGQAPVLVVYDDNVRPSGIPERFSGSNSGNTATLTISRVEAGDEADYYCQVWLNSSDDVLFGGGTKVTVL
B2: YU505-E01 (antibody, V domains shown)
VH: QVQLVQSGAEVKKPGSSVKVSCKASGGTFSSYSIVWVRQAPGQGLEWMGGIIPIFGTTNYAQKFQGRVTITADESTSTAFMELSNLKSEDTAVYFCARSLGATRDYWGQGTLVTVSS
VL: SYVLTQPPSVSEAPRQRVTISCSGSSSNIGNNAVNWYQQLPGKAPKLLIYYDDLLPSGVSDRFSGSKSGTSASLAISGLQSEDEADYYCAAWDDSLNGPVFGGGTKVTVL
B3: YU505-E04 (antibody, V domains shown)
VH: QVQLVQSGAEVKKPGSSVKVSCKASGGTFSSYAISWVRQAPGQGLEWMGGIIPIFGTANYAQKFQGRVTITADESTSTAYMELSSLRSEDTAVYYCARGRGYSYGHDYWGQGTLVTVSS
VL: B2 VL with V3E, L40F, P99W, V107L
B4: YU505-F03 (antibody, V domains shown)
VH: EVQLLESGAEVKKPGASVKVSCKASGYTFTGYYMHWVRQAPGQGLEWMGQINPNSGGTNYAQKFQGRVTMTRDTSISTAYMELSRLRSDDTAVYYCARGEGFDYWGQGTLVTVSS
VL: SYVLTQPPSASGTPGQRVTISCSGSSSNIGSNYVYWYQQLPGTAPKLLIYRNNQRPSGVPDRFSGSKSGTSASLAISGLRSEGEADYYCAAWDDSLSGVVFGGGTKVTVL
B5: YU505-A02 (antibody, V domains shown)
VH: QVQLVESGAEVKKPGSSVKVSCKASGGTFSSYAISWVRQAPGQGLEWMGGIIPIFGTANYAQKFQGRVTITADESTSTAYMELSSLRSEDTAVYYCARQIWAYDSSGYPVPAEYFQHWGQGTLVTVSS
VL: QSVLTQPPSVSGAPGQRVTISCTGSSSNIGAGYDVHWYQQLPGTAPKLLIYGNSNRPSGVPDRFSGSKSGTSASLAITGLQAEDEADYYCQSYDSSLSGVVFGGGTKLTVL
B6: YU505-E02 (antibody, V domains shown)
VH: QVQLVQSGAEVKKPGSSVKVSCKASGGTFSSYTISWVRQAPGQGLEWMGRIIPILGIANYAQKFQGRVTITADKSTSTAYMELSSLRSEDTAVYYCARDMVSVGAAGPYYFDYWGQGTLVTVSS
VL: B5 VL with G12E, G15R, G70V, V100S
B7: YU505-A01 (antibody, V domains shown)
VH: QVQLVQSGAEVKKPGASVKVSCKASGYTFTSYYMHWVRQAPGQGLEWMGIINPSGGSTSYAQKFQGRVTMTRDTSTSTVYMELSSLRSEDTAVYYCARDRHYYDSSGSSQATFLFDYWGQGTLVTVSS
VL: QSVLTQPPSVSGAPGQRVTISCTGSSSNIGAGYDVHWYQQLPGTAPKLLIYGNSNRPSGVPDRFSGSKSGTSASLAITGLQAEDEADYYCQSYDSSLNVFGTGTKLTVL
B8: YU505-B06 (antibody, V domains shown)
VH: not shown
VL: SYVLTQPPSVSVAPGKTARITCGGNNIGSKSVHWYQQKPGQAPVLVIYYDSDRPSGIPERFSGSNSGNTATLTISRVEAGDEADYYCQVWDSSSDHVVFGGGTKLTVL
B9: YU505-D02 (antibody, V domains shown)
VH: QVQLVQSGAEVKKPGSSVKVSCKASGGTFSSYAISWVRQAPGQGLEWMGGIIPIFGTANYAQKFQGRVTITADKSTSTAYMELSSLRSEDTAVYYCARETSSGWSFLDYWGQGTLVTVSS
VL: B8 VL with L105V
B10: YU505-F05 (antibody, V domains shown)
VH: EVQLLESGGGVVQPGRSLRLSCAASGFTFSSYGMHWVRQAPGKGLEWVAVMSYDGSKKYYADSVKGRFTISRDNSKNTLYLQMNSLRAEDTAVYYCVTQGMDVWGQGTLVTVSS
VL: B8 VL with S1Q, Y2S, D50I, D84A, Q88H
B11: YU505-A05 (antibody, V domains shown)
VH: QVQLVQSGAEVKKPGSSVKVSCKASGGTFSSYAISWVRQAPGQGLEWMGGIIPIFGTANYAQKFQGRVTITADESTSTAYMELSSLRSEDTAVYYCARSDSGYSGYGYFDYWGQGTLVTVSS
VL: QSALTQPASVSGSPGQSISISCTGTSSDVGRYNYVSWYQQHPGKAPKLMIYDVTNRPSGVSSRFSGSKSGNAASLTISGLQAEDEAEYYCTSYTSSNTLVIFGGGTKVTVL
B12: hybrid antibody: VL STE90-C11 (SEQ ID No. 1309) with VH YU536-D04 (SEQ ID No. 364) (antibody, V domains shown)
VH: QVQLVQSGGGLVQPGGSLRLSCAASGLTVSSNYMSWVRQAPGKGLEWVSVIYSGGSTYYADSVKGRFIISRDNSKNTLYLQMNSLRAEDTAVYYCARDLVVMGLDVWGKGTLVTVSS
VL: DIVMTQSPSFLSASVGDRVTITCRASQGISSYLAWYQQKPGKAPKLLIYAASTLQSGVPSRFSGSGSGTEFTLTISSLQPEDFATYYCQQLNSYPPFTFGPGTKVDIK
B13: hybrid antibody: VL STE90-C11 (SEQ ID No. 1309) with VH YU537-H11 (SEQ ID No. 404) (antibody, V domains shown)
VH: EVQLLESGGGLIQPGGSLRLSCAASGLTVSSNYMSWVRQAPGKGLEWVSVIYSGGSTYYADSVKGRFTISRDNSKNALYLQMNSLRAEDTAVYYCARGESGSPYGMDVWGQGTLVTVSS
VL: B12 VL
B14: hybrid antibody: VL YU537-H11 (SEQ ID No. 402) with VH YU536-D04 (SEQ ID No. 364) (antibody, V domains shown)
VH: B12 VH
VL: QSVLTQPPSVSAAPGQKVTISCSGSSSNIGNNYVSWYQQLPGTAPKLLIYDTNKRPSGIPDRFSGSKSGTSATLGITGLQTGDEADYYCATWDSSLSVGVFGGGTKLTVL
B15: hybrid antibody: VL YU536-D04 (SEQ ID No. 362) with VH STE90-C11 (SEQ ID No. 1305) (antibody, V domains shown)
VH: QVQLVESGGGLVQPGGSLRLSCAASGLTVSSNYMSWVRQAPGKGLEWVSVIYSGGSTYYADSVKGRFTISRDDSKNTLYLQMNSLRAEDTAVYYCARDVADAFDIWGQGTMVTVSS
VL: DIQLTQSPSSLSASVGDRVTITCRASQGISSYLAWYQQKPGKAPKLLIYAASTLQSGVPSRFSGSGSGTDFTLTISSLQPEDFATYYCQQLNSYPITFGQGTKLEIK
B16: hybrid antibody: VL YU536-D04 (SEQ ID No. 362) with VH YU537-H11 (SEQ ID No. 404) (antibody, V domains shown)
VH: B13 VH
VL: B15 VL

Molecular target: T1, receptor binding domain (RBD) of the S1-subunit of SARS-CoV-2 glycoprotein S (SARS-CoV-2, UniProt P0DTC2 319-541)
Experiment: ACE2:RBD competition assay, 5 µg/ml IgG

How did the “ACE2:RBD inhibition with 5 µg/ml IgG [%]” value turn out when B1 was run?
Its value is 35.6%.

Which “ACE2:RBD inhibition with 5 µg/ml IgG [%]” value does the source give for B2 here?
The value was 24%.

With B3 as the binder, how does the “ACE2:RBD inhibition with 5 µg/ml IgG [%]” value read?
Its value is 28%.

Which “ACE2:RBD inhibition with 5 µg/ml IgG [%]” value does the source give for B4 here?
Its value is 42.2%.

With B5 as the binder, how does the “ACE2:RBD inhibition with 5 µg/ml IgG [%]” value read?
The value was 43.8%.

With B6 as the binder, how does the “ACE2:RBD inhibition with 5 µg/ml IgG [%]” value read?
The value was 58.8%.

Which “ACE2:RBD inhibition with 5 µg/ml IgG [%]” value does the source give for B7 here?
Its value is 102%.

Which “ACE2:RBD inhibition with 5 µg/ml IgG [%]” value does the source give for B8 here?
Its value is 58.5%.

B9 was tested. Which “ACE2:RBD inhibition with 5 µg/ml IgG [%]” value did it give?
Its value is 49.4%.

With B10 as the binder, how does the “ACE2:RBD inhibition with 5 µg/ml IgG [%]” value read?
The value was 26.7%.

With B11 as the binder, how does the “ACE2:RBD inhibition with 5 µg/ml IgG [%]” value read?
Its value is 52.7%.

Molecular target: T1, receptor binding domain (RBD) of the …
Experiment: RBD-binding quality as compared to STE90-C11, wt

Does B12 bind?
Result: binds

Does B13 bind?
Result: binds

Does B14 bind?
Result: binds

Does B15 bind?
Result: binds

Does B16 bind?
Result: binds
